Laboratory results: patent US12037418B2, “Hydrogel-forming peptides, and methods of use thereof” (Nanyang Technological University, priority 2020, dated 2024)

Legend:
[1] = Peptide gelation (incubation, OD 550 nm, inverted tube); type: physicochemical; settings: for gel formation in water: C-terminus Val mutated; for gel formation in water / self-assembly behaviour observed over time: DI water; for self-assembly behaviour observed over time: up to 40 h
Protocol: UV-Vis spectroscopy: The peptides were dissolved in DI water at the respective concentrations and 100 μL was aliquoted into each well of a 96-well microtiter plate, with a minimum of 3 wells per condition. UV-Vis absorbance measurements at 550 nm were recorded on a Tecan infinite M200 Pro microplate reader at intervals of 30 min for the first 16 hours and subsequently at increased time intervals.
Peptide hydrogel (GV8): GV8 peptide was dissolved in DI water at the desired concentration (between 10 and 20 mM) and incubated at ambient temperature of 23° C. to 25° C. for at least 12 hours. For active agent encapsulation, GV8 hydrogels were prepared at concentrations of 20 mM to 50 mM with 1% Dimethylsulfoxide (DMSO) added per 10 mM of peptide in PBS with a pH range of 7.2 to 7.4 to form GV8 precursors, which gelate in a sealed environment under ambient temperature of 23° C. to 25° C. with a typical gelation time ranging from 5 h to 9 h (FIG. 1), depending on the concentration of the GV8 precursor. The GV8 precursors were prepared in various types of buffer solutions—such as DI water, Dulbecco's Modified Eagle's medium (DMEM), sodium acetate buffered solution with a pH range of 4 to 5, and/or buffered solutions with a pH ranging from pH 4 to 7.4.
Peptide hydrogel (GI8): GI8 peptide was dissolved in DI water at the desired concentration (between 10 and 20 mM) and incubated at ambient temperature of 23° C. to 25° C. for at least 12 hours. GI8 hydrogels were prepared at concentrations of 20 mM to 50 mM with or without 1% Dimethylsulfoxide (DMSO) added per 10 mM of peptide in PBS with a pH range of 7.2 to 7.4 to form GI8 precursors, which gelate in a sealed environment under ambient temperature of 23° C. to 25° C. with a typical gelation time ranging from 2 h to 7 h (FIG. 1), depending on the concentration of the GI8 precursor. The GI8 precursors were prepared in various types of buffer solutions—such as DI water, Dulbecco's Modified Eagle's medium (DMEM), sodium acetate buffered solution with a pH range of 4 to 5, and/or buffered solutions with a pH ranging from pH 4 to 7.4. […]

topical puncture wounds = test: In vivo wound healing assay, hydrogels applied to topical puncture wounds; set-up: species or system mice; settings: especially at initial stages (0 d to 2 d), n=3
Protocol: In vivo assay: To investigate the wound healing property of the hydrogels, 30 μL GV8 and GV8+ hydrogels loaded with 200 μg/mL ADMSC secretome were applied to topical puncture wounds on non-diabetic mice models, and monitored for a period of 2 d, 5 d and 7 d at various points in time. Representative wounds have been presented in FIG. 26, illustrating the healing of untreated (blank) and treated wounds over 7 d.

[2] = in the presence of Mg2+; cited from earlier work
[3] = Nanoindentation of GL8 beads; type: physicochemical

Row | Substance | gel formation in water [1] | self-assembly behaviour observed over time [1] | also measured
1 | GS8: Ac-GLYGGYGX-NH2 (SEQ ID NO: 11) peptide, C-terminus Val residue mutated to Ser (Ac-GLYGGYGS-NH2) | not able to form gels in water |  | 
2 | Ac-GLYGGYGI-NH2 [GI8] |  | remained in solution with some gel-like formation observed overtime | incubation time to hydrogel formation ([1]; 10 mM peptide in water, inverted tube test): 1 h
3 | GF8: Ac-GLYGGYGX-NH2 (SEQ ID NO: 11) peptide, C-terminus Val residue mutated to Phe (Ac-GLYGGYGF-NH2) | not able to form gels in water | remained in solution with some gel-like formation observed overtime | 
4 | Ac-GLYGGYGV-NH2 [GV8] |  |  | effect on wound closure versus control wounds (topical puncture wounds): promoted and accelerated wound closure; minimal critical gelation concentration (cgc) ([1]; in water): 10 mM
5 | E2(SL)6E2GRGDS |  |  | storage modulus (G′) [2]: about 480 Pa
6 | GK8: Ac-GLYGGYGX-NH2 (SEQ ID NO: 11) peptide, C-terminus Val residue mutated to Lys (Ac-GLYGGYGK-NH2) | not able to form gels in water |  | 
7 | GA8: Ac-GLYGGYGX-NH2 (SEQ ID NO: 11) peptide, C-terminus Val residue mutated to Ala (Ac-GLYGGYGA-NH2) | not able to form gels in water |  | 
8 | GL8: Ac-GLYGGYGX-NH2 (SEQ ID NO: 11) peptide, C-terminus Val residue mutated to Leu (Ac-GLYGGYGL-NH2) | not able to form gels in water | self-assembled into large (mm-size) and stiff beads | Young's modulus, dried ([3]; dried condition): 8.34 GPa; Young's modulus, hydrated ([3]; hydrated condition): 3.03 GPa
